This is an account of results in CN111138528A.

In the assay the target is BDBV GP (BDBV). The experiment in a line: ELISA, GP coated at 1 μg/mL, 5A8 from 10 μg/mL in 1:3 dilutions. In general terms: ELISA stands for enzyme-linked immunosorbent assay.

B1: 单克隆抗体5A8 (antibody, V domains shown)
VH: EVQLLESGGGLVKPGGSLRLSCAASGFTFSDYYMNWIRQAPGKGLEWVSYISSSGKTIYYADSVKGRFTISRDNAKKSLYLQMNSLRAEDTAVYYCARDREIVISTTILLGSDHYAMDVWGQGTTVTVSS
VL: DIQMTQSPFTLSASVGDRVTITCRASQSINSYLNWYQQKPGKAPKLLIYSASSLQSGVPSRFSGSGSGTDFTLTISSLQPEDFAIYYCQQTYRTPYTFGQGTKVEIKT
By EC50 is commonly meant the concentration that produces a half-maximal response. For the molecule B1, the EC50 came out at 0.126 µg/mL and the fold weaker binding than to EBOV GP came to 10 fold.
